Data reported in the DeepSol protein solubility set.

Test: soluble on expression in E. coli; label from the status in PepcDB or PDB records

Soluble on expression in E. coli, not soluble:
MGSDKIHHHHHHMLTTGTTRITGDRKLNDLIGHLIDPQLVEVEAAPQIKAMATSRLNFKMQKQTQTNWCWAAVSASVGNFYRTGSWTQCGVASASLDRNCCNQPGPCNIYGYLDSALRITRSYNGMNRGSLQMSAIRNQIKKGRPIGLRCAWYGGGAHFLVIYGTDGDYLLIADSIYGYSTRALNSFPRLYKSGGNWTDTYFTVKK
MGSDKIHHHHHHMLTTLAINNYRSLRDIRLPLGRLNLVTGANGSGKSNLYKALRLLAQTAQGGVVNALAQEGGLDSCFWAGPENLTKGMLSGDTEITPTVRQQTKRLKLGFAGDEFSYLIELGLPKPDNTTLFGLDPQIKREAIWVGNKYRPAAVLVERRGPMVKGRAQQRGQDGWQSLNQHMQHGDSIFTELSDPSRTPEVLRLRDSIRAWRFYDHFRSDSEAPARQPQLGTRTPVLHHDGRDLASAIQTIFEIGDRESFDEAVSDAFPGAHVTIGYQAGGLLSVNFHQQGLLRPLNAQELSDGTLRYLLLIAALLTPRPPELMVLNEPETSLHPDLLPALARLIAKATKVCQLWVVSHANRLINALNEFEQCQLIELDKQLGQTRIVGQDLLSTPGWNWQQKAQG
MGSDKIHHHHHHMLVASLVLLGLYDLFQAKHSILRNFPVIGHMRYLLEMIGPELHQYFVESDTDGKPINKNHRNYIYERAKEQNQTRPFGTQLNVYDDNYKWMQHSIYPAKKMDTPPRVVIGGKDCQQPYSASLFNISAMSFGALSKNAIQALNLGAKAGEFFHDTGEGGISEYHLQGGDLVWEIGTGYFGCRTGNGCFDAEKFKQKANWE
MGSDKIHHHHHHMLVENSHTPDALAEAFATVDGLMATGKFARSLSVMLPFVQTGELDAGLLDRTADCFFEMRDYENAVNVMRHVTATWPDDPSAWGKLGLMLQTKGDLLGAEQAFEEVLKRDPNSIPALTALNGIETFSVDSLYAQRLMSLSEREDLDAKHRALIHYALAQIAHGSGEAEVAFTLFQSARNEVAGPFAPAIFDEMVAEQEALFEPRPASEDASLLPKLVFIGGMPMSGTGLVDRILAQHPGVFSVGAKTALSRTHGAIRMHLAKTDRPCNYWDWMEHLSAEEIDIFRQYYLERALGGQVAGGKTIVDAHPLGCLEFGLAQFLFPEAKFVFMSRHPMDTALANIASNVLNGNALASRTEWIAQVMRTVYSSATVYASKLGDSMRLQSYEALVQNSEREIGLLLEHAGLEYNAACLTPNALCDVPQIATMLGQEELSTETQNQWLPYEEQLQGFYEQLGGERWVSAWEDFDKTLR
MGSDKIHHHHHHMLVVGASGSGKSTFANCINGLIPFKTKGNITGELYINNQDATVSCLHDRSNVVGTVLQDTDGQFIGLTAAEDMAFLLENNCVEQDDMKKNVSYWAEKVGMIEHLNHRPQDLSGGQKQRVSLGGILIHRTPILILDEPLANLDPATGHETLRLLNNIHEETKSTMIIVEHRLEESLDDTFDRVLLFKDGKIIANTTPSDLLKSSKLKEAGIREPLYCTALKYAEVDVESIDNLANLRDVCMSEHVKFKVKKWIDETSANNDNKYKSEPLLELNEVCVQYSDYSNSVLNNVQLNVYRREMLSIVGHNGAGKSTLAKAICGFLDITGNIQFCNRGFNQLSISERSEFVGYVMQNPNHMISEKMIYDEVALGLRARGMKESDIKIRVENVLKICGLYAFRNWPIAALSYGQKKRVTIASVLVLNPEIIILDEPTAGQDFYHYNEIMSFLIELNRQGKTIIMITHDMHLLSEYSSRTVVLSKGQVVADTTPVLILNDKKICEIASLRQTSLFEMAEYIGISEPQKLVQLFINHDRKVRRQ
MGSDKIHHHHHHMMDMTTRPTLQHFLSDTKHGPYVSLYMSWPENTSVEALRLRFKNMVKHTKSVMTETYPETDFSAYAAELEPYEQDPTFWQTCETNGFGMLTNGAQTYVTPMYEAVDEVAMVTDMPQILPLMLDEATATDFDILALNADSIQMYHNHGHQVRPISLPDDAPQTLKGTLGTEIRGGETNSVSQGGGRVTHHGHNEKSAEKASDQRRFYQAVDQYVLANHSNPHKMPLVLMGLAENVAVFREISKNHHLLPKLAVVKSPANLDFVELDDLLTPVRETLRDRRRQNFAEIIENARGNDSYTDHLEEVVQAAVAGRIAILFVQAGARIHARLEGTQIERDSINAQHANLLNDLADIVLSHGGQVELLTEAYLPVEVGAMVRYA
MGSDKIHHHHHHMMEKVTQMIAMLIKAWKKESVSQIDTPPVPATPEPKQQSPNNSACLTERVNTFLQTHYDFRYNRLTEETEFRPLSGAKTEFRPIGKRELNTLCMEAHAEGISCWDKDVSRYIYSTQIGEYHPFRLYMDELPPWDGIDRLTPLARRVSALPLWVKGFHTWMLGLAAQWEGKTGVHANSLAPILISAEQGRMKSTFCKSLMPKVLQRYYMDNLKLTSEGQAERLLSEMGLINLDEFDKYAESKMPLLKNLMQMSSLHVCKAYQRNFRDLPRIASFIGTSNRSDLMSDPTGSRRFFCVEVEKPINCEGIEHEQIFAQLKAELADGCPYWFDKETEREIQQNNAPFYRTCPAEEVFLSCFRTSASAEEKYLRLSAADIYKELKKRNAAALRGFNPNHFAQVLIKMGVERKHTEYGNVYLVVRR
MGSDKIHHHHHHMMEMVNNSFRHGILFQEGKMEEARFIERPNRFTVRCALGSEILDAYLPNPGRLWELLLPDSVLYVVRRDVGQDRKLRGVVVAVEREGRPVMLHTLACNDIVADLLRQKRLPGFEGMNILQREIARGRSRFDFLLEQNGAPRLLEVKSCTLFGRCIAMFPDAVTLRGRRHLLELAELSRQGTPAHVLFLVHWPHADFFLPDYHTDFDFASTFLAVRDAVRFSALAVDWQPDMTPGAEIRELYIPWELLEREVQDSGCYLLVLHLPRNENVIPGGSTLLSLRKGYYVTVVSIRSGLTRHLQKSSRRRPGSENSRKSTVPDNLKAAADKILAIPIRTTEPLEAELNDALSRIADWSVPGFEARGDAGLAPVFGMAGPPLQRRAFVELLLDFRINRLEKFLARGAGSSAGPPVGNPSLEKIQ
MGSDKIHHHHHHMMFEFNFARAMASLREEYAKDAKINIQHVWQNETAAVIAKALATEVSFDNAMFVENKPMRISDQQIRQLPVEAQKDLQQKILQNAANGIGFLYGSHLVGGLDGKPSPELLTSLHRFINSPDMFKFIQSITGIEGICYASLQASRYIQGNFLTRHNDVVESEGRKVAFVFGFTPEWHPDWGGLLQFYTPKGVLTDTWVPTFNNLALFDVHHPHSVSFVAPFAKRPRFSVTGWFRTIAPSK
MGSDKIHHHHHHMMGLPTLEQMQFQHAAAQLNALHAELIDDDRLEEWPDLFEEKCQYSVISAENHNRSLNLAAVFCDSRGMLVDRIVSLRRANIFPAHSYRHILGPTRVKSTSGQIVTTQTNYVVLMTRNDGQTSIYNSGKYVDQIDVSGAAPRFLSKTAIFDTHLIDTMMVRPI
MGSDKIHHHHHHMMIHGFQSSHQDFSFGPWKLTASKTHIMKSADVEKLADELHMPSLPEMMFGDNVLRIQHGSGFGIEFNATDALRCVNNYQGMLKVACAEEWQESRTEGEHSKEVIKPYDWTYTTDYKGTLLGESLKLKVVPTTDHIDTEKLKAREQIKFFEEVLLFEDELHDHGVSSLSVKIRVMPSSFFLLLRFFLRIDGVLIRMNDTRLYHEADKTYMLREYTSRESKIANLMHVPPSLFTEPNEISQYLPIKEAVCEKLVFPERIDPNPVDSQSTPSE
MGSDKIHHHHHHMMKHRHPQLRFLGATDSVTGSRYLVEAAGKRILVDCGLFQGYKVLRDRNRIPFPVRPDSIDAILLTHAHLDHTGYVPALVRDGFNGPVYATEGTTELCTLLLPDSGHLQEEEAKYAYEHGSSRHSPPVPLYTAADAVRSLDSFREHGFDTPLELGGGIAATFLPAGHILGAAQIRLAVGQHSVHFTGDLGRTDDPLMFPPRGLGAADILVTESTYGNRKHSSLDPELQLGEIITRVAKKNGVIMIAAFAVGRAETLMLHLSRLRSKNAIPDIPVYLNSPMAIDASGMYQRHPDEHRLKQPEYEDMYKVAKMTRTVDDSKLLNLRGGPMVIISASGMLTGGRILHHIAEYGPDPKNAIILSGYQAGGTRGAALAAGVRQLRIYGEDVRIRAEVIQMESLSAHADSDGLIEWMRAAAREPRMTYITHGEPEASDALRIRIKRELGWRVRVPEYLEGISLEDPT
MGSDKIHHHHHHMMKRFWFFLESYVFVWTNHEAVLLYDSLSGKGVTWKLTDPVRTIVMELMKKENLYCMELTEDDLNVPEVTEFVSEIRRNFIGDLYSQEEFRQKPLVIVPEVSVNENLENDVETMNNLELFGQKIVNNLRVVTMRLTGECSINCRYCQTVDKQIVWCRKQDNRLSYNEICRLLEQLKHTPVTLINFVGGNVLSYPFLDELLNELKKHSFGKCFYLYYKQSVDYEQIRAKLLNDPSVSIKFLIDYPVNEYAISACVALPNERVEYCFAVTSEEEFQEVSRIIDVYKLKANIYPFYTIDNLDFFEKYVFQTLEDVMALCRTKKDIFAHQLVNTHFFGTLYIDCDGKVYPNFNSKSIGTIDGYVKDWVFQEMKQGKMWHWTRDSLPACKECLYKYLCPSPSNYELVIGKPNLCHVKPWKC
MGSDKIHHHHHHMMKSVLADAVFGGALMIEFYASEALICPRRVWFRLKGIPEKWPEVAKPRLEKGMKIHEVLGKVLKDRFDVELEKSVIIRFPKLGMEIHGKIDVYKEFPIEIKGKSYIPSSPIDYHLAQLNLYLRGVNAEYGYLYYVKLTDDPWRAISDIVFDSFPLIKGNGLKIFEVPYDEVLFKETVKYFYEIKLYLENDELPPAWKGPHCKFCPYNYICLSGEEF
MGSDKIHHHHHHMMPYITDIAALEHVGVAAAWTEKVPAFRVLREKRMLDFRAPITVITGENGVGKSTLLEAIAINAGFDTAGGEHTGKFKPSDNPLQTVAKAHKGKEPMRGYFLRAETHFNVASGYRDEAPGWVNLHHMSHGESVMHIVQNAFVGKGLYLMDEPEAGLSFIRQMAILAELNFLAESGAQIIIVTHSPVLMAIPGAEIWEFSASGELHRGFDFEVTTAFRALRDFFEDPEEIAEYMMDVMMDNKGES
MGSDKIHHHHHHMMSYVRMTLYHGTDRKSAEKIMESKEILPSQGDNHWLGDGIYFYEEEFHAFKWIWYKEKNRNRLLKNFAIIKAEVICEESRIFDLTKIEHKLLFDMMYKLINTTKLRLDKLRGDMCAEGVVINYMFKNKELGYNKRFDIVRALFPIPVKKYQKIENREKNKKYKERTHRLTFMPEIQVCVKNPSVIKKLEWYDLEKTIDKFLIYTEIYKEDLGI
MGSDKIHHHHHHMMTSSEIKRIATYVEKGGVGKTTSAAHIAVAAHNRGHEVLLVDLAGTQNDLATHFGLSIVDEEATDDGVSIDAPISAVFGDDWAFLRDNIDDLLDRMTFPTDEGPDLIPADPGLGGADNNLANVPLEERYQKLDGFVEDLVADKYDLVIFDLPGKEDNIALNGLFAARNVVAPLKPGAFERDQLQKLDATLEEISADLDVDLGLALIIPTIISSQETLSESFVEYVTEEYPEIVGEPVTKTADIGNNQNAGRTLFAVPDDELYATGKRAREAYSANTEQLLSRLTDR
MGSDKIHHHHHHMMYPMPSWVYDSVVYQIFPDRFFIGKGKTVEDKKDLYLKRGGVIEKWGVPPRKLPGAQHVKIFYGGDLWGIAEKVDYFEELGINVLYLTPIFLSDTNHKYDTIDYFRVDPQFGGKRAFLHLLRVLHERSMKLILDGVFNHVGSQHPWFKKAKKNDPEYVNRFFLYKDRHRSWFDVGSLPELNVEVEEVKEYILKVVEHYLKLGIDGWRLDCGHDLGPTVNLWINMKVKEFSAEKYLVSEIWTYPAGWDMVDGLMNYNFRNLVLSYVNGETDSIGFHLERAYRETKNIFGCWNMLDSHDTPRLATMVPDRDLRKLAVVLQFTYPGVPLVYYGTEIGLTGGEDPECRATMEWNREKWDVDLFEFYKKMIRLRRTDPGLRFGEFVLLNDSPLAFLRKAPHPLQNTIVVVNPGEEKVLVLSIPDGKIMNTTPLVDVFSGERFHVDGGVVKLPLLARSFRILKPEDLRVGKYRLYKRV
